{
  "source": "patent US20200399392A1",
  "about": "“INHIBITORS OF PLA2-G1B COFACTORS FOR TREATING CANCER” (priority 2018, published 2020)",
  "key": {"gC1qR": {"molecular_target": "T1, gC1qR (Homo sapiens, UniProt Q07021)", "T1 sequence (Q07021 74-282)": "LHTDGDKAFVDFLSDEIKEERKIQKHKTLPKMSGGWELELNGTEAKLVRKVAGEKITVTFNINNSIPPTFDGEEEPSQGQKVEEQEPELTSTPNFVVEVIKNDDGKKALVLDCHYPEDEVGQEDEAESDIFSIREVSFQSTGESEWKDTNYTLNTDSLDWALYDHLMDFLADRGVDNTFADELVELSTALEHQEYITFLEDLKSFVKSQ", "experiment": "gC1qR-peptides binding assay (ELISA on microplates)", "details": "peptide coated, His-tag-gC1qR 0 to 3 μg/well, FIG. 12", "method": "The unbound protein was removed; the wells washed 2× with TBST (20 mM Tris-HCl pH 7.5, 150 mM NaCl, and 0.05% Tween-20) and the unreacted sites blocked by incubation (30 min, room temp) with 300 μl of 3% BSA in TBST. After washing (2× with TBST), the microtiter plate bound peptides was incubated (2 h, room temp.) with different amount of His-tag-gC1qR ranging from 0 to 3 μg/well in triplicate. After washing (5 times with TBST), 100 μl of anti-His tag-HRP antibody (1:1000; 71840-3, Merck) in 3% BSA in TBST was added per well and incubated for 2 h at room temperature. Microplates wells were then washed (5 times with TBST) and 100 μl of TMB ELISA substrate standard solution (UP664781, Interchim) was added per well. Reaction was stopped with 100 μl per well of a H2SO4 solution at 0.16M and OD at 450 nm was measured on a microplate reader (Tecan Infinite M1000 Pro).\nA scrambled peptide or a control peptide were used as control."}, "[1]": {"tested_on": "gC1qR KO Jurkat E6.1 T cells", "experiment": "PLA2-GIB enzymatic assay on [3H] arachidonic acid labelled gC1qR KO Jurkat E6.1 T cells", "assay_type": "cell-based, human", "details": "gC1qR KO cells (1D5 or 2G9), pretreatment 21 h, FIG. 13", "from_the_text": "Generation of gC1qR KO Jurkat E6.1 T cells—The global strategy for the development of Jurkat cells deprived of C1QBP is based on the design of a targeting vector permitting bi-allelic inactivation of C1QBP gene via homologous recombination. Human C1QBP homologous regions isogenic with the Jurkat E6.1 T cell line (ECACC 88042803) has been used. The targeting vector has been synthetized by Genewiz and cloned into the pUC57-Amp vector. […] The NeoR cassette was cloned using BamHI/NotI restriction sites. The targeting vector has been verified by DNA restriction digestion cut with selected restriction enzymes (APaL1, Drd1, Pvu1, Pvu2, BamH1/NotI, Not1/NcoI, NEB) and target region sequencing. The DNA primers corresponding to C1QBP sgRNA (1828-Crispr_1A: CACC-[…] and 1828-Crispr_1B: AAAC-[…]) were hybridized and cloned (Quick Ligase-New England Biolabs, NEB) into the pX330 plasmid (Addgene, 42230; Feng Zhang, MIT) using BbsI restriction site (NEB).\nThe Jurkat cells (5×10^6) were resuspended in 100 μL of Opti-MEM and 7 μg of CRISPR/Cas9 plasmid and 2.5 μg of targeting vector were added. The cells were electroporated with a Nepa21 electroporator. After cell selection in G418 selective medium, the Jurkat cell clones were prescreened by PCR genotyping. Independent cell clones knocked-out for C1QBP gene were amplified and verified by PCR genotyping and target region sequencing. […]"}},
  "data": [
    {"substance": "NH2-PWNASWSNKSLDDIW—COOH (H-PWNASWSNKSLDDIW-OH) [PEP3]", "values": [
      {"measurement": "binding to gC1qR", "setting": "gC1qR", "result": "binds"},
      {"measurement": "PLA2-GIB activity vs scrambled PEP3", "setting": "[1]", "result": "not"}
    ]}
  ]
}
